{
  "source": "paper PMC4263446",
  "about": "(Molecular Biology of the Cell, 2014)",
  "biological_target": "the molecule itself",
  "assay": "non-reducing SDS-PAGE",
  "data": [
    {"protein": "Flag-CD73L (canonical ecto-5′-nucleotidase, long protein isoform of CD73) (enzyme, human, UniProt P21589-1 27-549, looked up, glycosylated (Asn-311/333/403)) WELTILHTNDVHSRLEQTSEDSSKCVNASRCMGGVARLFTKVQQIRRAEPNVLLLDAGDQYQGTIWFTVYKGAEVAHFMNALRYDAMALGNHEFDNGVEGLIEPLLKEAKFPILSANIKAKGPLASQISGLYLPYKVLPVGDEVVGIVGYTSKETPFLSNPGTNLVFEDEITALQPEVDKLKTLNVNKIIALGHSGFEMDKLIAQKVRGVDVVVGGHSNTFLYTGNPPSKEVPAGKYPFIVTSDDGRKVPVVQAYAFGKYLGYLKIEFDERGNVISSHGNPILLNSSIPEDPSIKADINKWRIKLDNYSTQELGKTIVYLDGSSQSCRFRECNMGNLICDAMINNNLRHTDEMFWNHVSMCILNGGGIRSPIDERNNGTITWENLAAVLPFGGTFDLVQLKGSTLKKAFEHSVHRYGQSTGEFLQVGGIHVVYDLSRKPGDRVVKLDVLCTKCRVPSYDPLKMDEVYKVILPNFLANGGDGFQMIKDELLRHDSGDQDINVVSTYISKMKVIYPAVEGRIKFS", "values": [
      {"measurement": "stoichiometry N", "result": 2}
    ]}
  ]
}
